Results taken from article PMC7612939.

Biological target: TCRβ chain of the 5c.c7 TCR (Vβ3) (mouse (T-cells of 5c.c7 TCR transgenic mice))
Test: FRET or BRET

FRET yield: 25%
Substance: CD3ε (from UniProt P22646 22-189) (natural protein)
